These results are taken from patent publication US20050042220A1 (GENETICS INSTITUTE, published 2005).

T1: IL-22R-Fc/IL-10R2-Fc heterodimer from co-expressing CHO cells (human, UniProt Q8N6P7 16-228; Q08334 20-220)
T1 construct: extracellular domain; also called IL-22R/IL-10R2-Fc heterodimer; IL-22R-Fc/IL-10R2-Fc complex; not shown: human IgG1 Fc
T1 sequence 1: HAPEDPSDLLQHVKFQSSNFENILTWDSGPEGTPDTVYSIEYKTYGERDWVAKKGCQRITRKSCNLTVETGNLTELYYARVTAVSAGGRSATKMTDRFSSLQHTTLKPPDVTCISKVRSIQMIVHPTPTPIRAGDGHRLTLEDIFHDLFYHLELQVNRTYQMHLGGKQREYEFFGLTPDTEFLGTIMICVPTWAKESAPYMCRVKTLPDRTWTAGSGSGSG
T1 sequence 2: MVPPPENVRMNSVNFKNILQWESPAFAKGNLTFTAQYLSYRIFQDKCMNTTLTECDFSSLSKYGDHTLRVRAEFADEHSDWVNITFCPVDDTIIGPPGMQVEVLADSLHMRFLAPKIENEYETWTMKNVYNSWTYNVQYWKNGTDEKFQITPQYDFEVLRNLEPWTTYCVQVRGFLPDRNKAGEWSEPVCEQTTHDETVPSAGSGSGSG

B1: human IL-22 binding protein-Fc fusion (Fc fusion)
chain: TQSTHESLKPQRVQFQSRNFHNILQWQPGRALTGNSSVYFVQYKIYGQRQWKNKEDCWGTQELSCDLTSETSDIQEPYYGRVRAASAGSYSEWSMTPRFTPWWETKIDPPVMNITQVNGSLLVILHAPNLPYRYQKEKNVSIEDYYELLYRVFIINNSLEKEQKVYEGAHRAVEIEALTPHSSYCVVAEIYQPMLDRRSQRSEERCVEIPAGSGSGSG
notes: Fc fusion homodimer, used as CHO conditioned medium; also called IL-22BP-Fc; huIL22BP-huFc; not shown: human IgG1 Fc
B2: human IL-22R extracellular domain-Fc fusion homodimer (Fc fusion)
chain: T1 sequence 1
notes: extracellular domain; Used as CHO conditioned medium, not purified; also called IL-22R-Fc; IL-22RECD-Fc; not shown: human IgG1 Fc
B3: biotinylated N terminal His/Flag tagged human IL-22 (ligand)
chain: GSGHHHHHHGSGDYKDDDDKAPISSHCRLDKSNFQQPYITNRTFMLAKEASLADNNTDVRLIGEKLFHGVSMSERCYLMKQVLNFTLEEVLFPQSDRFQPYMQEVVPFLARLSNRLSTCHIEGDDLHIQRNVQKLKDTVKKLGESGEIKAIGELDLLFMSLRNACI
modifications: biotinylated with EZ-Link Sulfo-NHS-Biotin (sites not given)
notes: also called bio-IL-22; biotinylated IL-22

The target of experiment [1] is B3. The experiment in a line: competition ELISA (printed as ND50): IL-22BP-Fc pre-incubated with bio-IL-22 30 ng/ml, binding to captured IL-22R-Fc; IL-22R-Fc homodimer immobilized (FIG. 11A). The method, then: (§1) After a final set of washes, 100 μl of TMB Microwell peroxidase substrate (BioFX, Owings Mills, Md.) was added for 20 minutes and the reaction stopped with 100 μl 2N H₂SO₄. Colorimetric detection of the peroxidase product was done at 450 nm in a Molecular Devices (Sunnyvale, Calif.) microplate reader.
(§2) For certain ELISA assays of the above format where both the receptor Fc and bio-IL-22 are at a fixed concentration, IL-10R2-Fc was added at various concentrations either before or with bio-IL-22 (FIG. 9A) or after the bio-IL-22 (FIG. 9B). For other ELISA assays of the above format where the indicated receptor Fc and bio-IL-22 are also at a fixed concentration, antibodies (FIG. 10B-10C., 11C) or IL-22BP (FIG. 11A-11B) were added at various concentrations after a pre-incubation with the bio-IL-22 for 30 minutes. For ELISA assays in which the recruitment of IL-10R2-Fc to the IL-22/IL-22R complex was detected directly (data not shown, experimental design of FIG. 9A), non-biotinylated IL-22 was added to the ELISA and either polyclonal goat anti-hIL-10R2 or a mouse monoclonal anti-hIL-10R2 (R&D Systems, Inc, Minneapolis, Minn.) was used as detector.
(§3) IL-22 binding protein (IL-22BP) is a soluble ‘receptor’ for IL-22 that has low homology to the extracellular domain of IL-22R. […]

Experiment [2] deals with B3. Kind of experiment: blocking ELISA: IL-22BP-Fc pre-incubated 30 min with bio-IL-22 (30 ng/ml), added to 50 ng/ml IL-22R-Fc captured on anti-human IgG wells; bound bio-IL-22 read with streptavidin-HRP, A450; blocked partner IL-22R-Fc. The method, then:
as §1, §2, §3
For orientation: In an ELISA, binding on a coated surface is turned into a signal by an enzyme label.

Experiment [3] has as its target B3. The experiment in a line: competition ELISA (printed as ND50): IL-22BP-Fc pre-incubated with bio-IL-22 5 ng/ml, binding to captured IL-22R/IL-10R2-Fc heterodimer (FIG. 11B by its legend); IL-22R/IL-10R2-Fc heterodimer immobilized (FIG. 11B; printed as FIG. 6B). The method, then:
Colorimetric detection of the peroxidase product was done at 450 nm in a Molecular Devices (Sunnyvale, Calif.) microplate reader.
as §2
IL-22 binding protein (IL-22BP) is a soluble ‘receptor’ for IL-22 that has low homology to the extracellular domain of IL-22R. It neutralizes signal transduction mediated by IL-22 (Dumoutier, L. et al. (2001) J Immunol 166(12):7090-5; Kotenko, S. V. et al. (2001) J Immunol 166(12):7096-103; Xu, W. et al. (2001) Proc Natl Acad Sci USA 98(17):9511-6; Wei C-C et al. (2003) Genes & Immunity 4:204-21117). […]

Experiment [4] concerns the target B3. Kind of experiment: blocking ELISA: IL-22BP-Fc pre-incubated 30 min with bio-IL-22 (5 ng/ml), added to 50 ng/ml total Fc of co-expressed IL-22R-Fc/IL-10R2-Fc captured on anti-human IgG wells; bound bio-IL-22 read with streptavidin-HRP, A450; blocked partner IL-22R-Fc/IL-10R2-Fc. The method, then: as §1, §2, §3
The target of experiment [5] is B3. The experiment in a line: ELISA, bio-IL-22 on streptavidin plates, IL-22R-Fc titrated (FIG. 6B). The method, then:
(§4) FIG. 6B depicts the results form an ELISA assay performed in the opposite format, whereby 100 µl of 1 µg/ml biotinylated IL-22 was added to Reacti-Bind 96 well streptavidin-coated plates (Pierce, Rockford, Ill.) for one hour. After washing, Fc fusion receptor was added at various concentrations to the plates for one hour, washed and then detected with goat anti-human IgG-HRP. In FIG. 6A, fifty ng/ml of total Fc in conditioned media (CM) from CHO cells expressing either IL-22R-Fc (▪) or IL-10R2-Fc (O) was captured onto anti-human IgG coated wells. Biotinylated IL-22 (bio-IL-22) at various concentrations was then added to the wells. Bound bio-IL-22 was subsequently detected using streptavidin-HRP. In FIG. 6B, bio-IL-22 (1 μg/ml) was captured onto streptavidin plates. Various concentrations of either IL-22R-Fc (▪) or IL-10R2-Fc (O) in diluted CHO. CM was then added to the wells. Bound receptor Fc was subsequently detected using goat anti-human IgG-HRP.
IL-22 binding to the extracellular domain (ECD) of IL-22R and IL-10R2 was evaluated using two ELISA formats. In the first version, receptor-Fc fusion proteins were immobilized via the Fc domain on anti-human IgG coated plates. Biotinylated IL-22 was then added and detected with streptavidin-HRP. […] Receptor-Fc were then added and detected with HRP-conjugated, anti-hIgG.

Experiment [6] addresses B2. The experiment in a line: ELISA, IL-22R-Fc captured on anti-human IgG, bio-IL-22 titrated (FIG. 6A). The method, then:
as §1
as §4, with “Various concentrations of either IL-22R-Fc (▪) or IL-10R2-Fc (O) in diluted CHO. CM was then added to the wells.” left out
IL-22 binding to the extracellular domain (ECD) of IL-22R and IL-10R2 was evaluated using two ELISA formats. […] Biotinylated IL-22 was then added and detected with streptavidin-HRP. […] Receptor-Fc were then added and detected with HRP-conjugated, anti-hIgG.

In experiment [7] the target is T1, IL-22R-Fc/IL-10R2-Fc heterodimer from …. The experiment in a line: ELISA, 50 ng/ml total Fc from co-expressing CHO captured on anti-human IgG, bio-IL-22 titrated (FIG. 8A). The method, then: The results shown in FIGS. 6A, 8A-8B, 9A-9B, 10B-10C and 11A-11C were obtained from ELISA assays where receptor Fc from CHO CM were first immobilized via an anti-hIgG coat. Flat bottom, 96-well ELISA plates (Costar, Cambridge, Mass.) were coated overnight at 4° C. with 100 μl goat anti-human IgG antibody (Southern Biotech Associates, Inc., Birmingham, Ala.) at 1 μg/ml in 0.1 M sodium carbonate buffer (pH 9.6). The plates were washed twice with 200 pi phosphate-buffered saline containing 0.05% Tween 20 (PBS-T), blocked with 100 μl 1% BSA (Sigma, St. Louis, Mo.) in PBS-T for 1 hour and washed three times. Following by one hour sequential incubations (100 ul), each separated by three washes, were then employed: a given receptor fusion(s) at a fixed concentration or serially diluted, biotinylated IL-22 (bio-IL-22) at a fixed concentration or serially diluted, and then 1/10,000 dilution of streptavidin-horse radish peroxidase (HRP) (Southern Biotech Associates, Inc., Birmingham, Ala.). […] Colorimetric detection of the peroxidase product was done at 450 nm in a Molecular Devices (Sunnyvale, Calif.) microplate reader.
IL-22 binding to the ECD of IL-22R and IL-10R2 secreted as Fc heterodimer was then evaluated. […] The ability of cytokine to bind was then evaluated using various concentrations of bio-IL-22 as the detector (FIG. 8A). […]

Consider B1, for which the half-maximal inhibitory concentration (IC50) in experiment [1] is 4 nM; in experiment [3], 2 nM. The entries for the “IC50 (read off the curve)” value in experiment [2] and in experiment [4] were about 0.5 nM and about 0.2 nM, respectively.

As for B2, a half-maximal effect in experiment [5] (EC50) was put at 0.006 µg/mL.

As for B3, in experiment [6], the response was half-maximal at 0.02 µg/mL (EC50). In addition, the “fold less bio-IL-22 needed for a comparable signal than with immobilized IL-22R-Fc homodimer” value in experiment [7] came out at 8 fold.

Broadly, the IC50 is the midpoint of a concentration-inhibition curve. The term EC50 denotes the concentration needed to bring the measured effect to its halfway point. A lower EC50 goes with higher potency in that assay.
